The target in the data set is hATP5A1 pre-protein (F1-ATP synthase subunit alpha precursor) (Homo sapiens, UniProt P25705). Briefly: EMSA.

Take CUUUCCGCUCGGCUGUUUUCCUGCGCAGGAGCCGCA (ssRNA) [RPL13 RNA ligand]: the binding result is given as “binds”.

For the origin of these results see doi:10.1101/2024.08.19.608659.
